Results reported in IntAct's records for PubMed 14732713.

B1: Rho-related GTP-binding protein RhoN (Homo sapiens), P52198 (parent)
chain: MEGQSGRCKIVVVGDAECGKTALLQVFAKDAYPGSYVPTVFENYTASFEIDKRRIELNMWDTSGSSYYDNVRPLAYPDSDAVLICFDISRPETLDSVLKKWQGETQEFCPNAKVVLVGCKLDMRTDLATLRELSKQRLIPVTHEQGTVLAKQVGAVSYVECSSRSSERSVRDVFHVATVASLGRGHRQLRRTDSRRGMQRSAQLSGRPDRGNEGEIHKDRAKSCNLM
partner: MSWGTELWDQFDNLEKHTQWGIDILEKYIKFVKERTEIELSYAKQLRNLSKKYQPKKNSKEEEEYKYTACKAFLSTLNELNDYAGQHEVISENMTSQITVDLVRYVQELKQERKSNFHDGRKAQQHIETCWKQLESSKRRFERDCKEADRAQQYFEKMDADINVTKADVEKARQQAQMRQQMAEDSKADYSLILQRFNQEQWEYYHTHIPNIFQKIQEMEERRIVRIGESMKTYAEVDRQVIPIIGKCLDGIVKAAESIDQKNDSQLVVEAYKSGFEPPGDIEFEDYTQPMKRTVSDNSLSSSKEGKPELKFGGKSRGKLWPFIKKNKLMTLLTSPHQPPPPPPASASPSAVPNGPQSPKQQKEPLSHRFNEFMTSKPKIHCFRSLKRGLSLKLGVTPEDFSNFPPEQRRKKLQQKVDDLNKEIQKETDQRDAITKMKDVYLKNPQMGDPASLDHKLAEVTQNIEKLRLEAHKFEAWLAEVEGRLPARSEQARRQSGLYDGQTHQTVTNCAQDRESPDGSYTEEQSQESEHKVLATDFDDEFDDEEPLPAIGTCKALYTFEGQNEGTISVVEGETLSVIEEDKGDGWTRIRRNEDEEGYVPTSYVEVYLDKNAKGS

Variants of: B1
Conditions: with fnbp1_rat Fnbp1, Q8R511

effect of a mutation on the interaction	Variant
increasing interaction	MEGQSGRCKIVVVGDVECGKTALLQVFAKDAYPGSYVPTVFENYTASFEIDKRRIELNMWDTSGSSYYDNVRPLAYPDSDAVLICFDISRPETLDSVLKKWQGETQEFCPNAKVVLVGCKLDMRTDLATLRELSKQRLIPVTHEQGTVLAKQVGAVSYVECSSRSSERSVRDVFHVATVASLGRGHRQLRRTDSRRGMQRSAQLSGRPDRGNEGEIHKDRAKSCNLM [A16V]
